We go through two molecules from PMC11768756.

The assay addresses MK-1654 IgG (human). Description: SPR; Biacore 8K+; MK-1654 IgG captured on a Protein A chip (about 110 RU); 1A6 or 1D4 Fab flowed at 0.4-128 nM, 60 s contact and 60 s dissociation, 30 µL/min; global 1:1 fit; KD = koff/kon; averages of three runs.

Sequence of MK-1654 IgG (human) (heavy, as listed by the source, chain 1 of 2): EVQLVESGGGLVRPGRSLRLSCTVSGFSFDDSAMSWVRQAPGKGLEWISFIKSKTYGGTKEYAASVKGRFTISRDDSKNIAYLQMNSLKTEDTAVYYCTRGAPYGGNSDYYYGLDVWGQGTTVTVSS
Sequence of MK-1654 IgG (human) (light, as listed by the source, chain 2 of 2): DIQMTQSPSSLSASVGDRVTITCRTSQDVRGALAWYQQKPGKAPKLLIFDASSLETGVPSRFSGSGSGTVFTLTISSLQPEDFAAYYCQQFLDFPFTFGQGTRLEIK

B1: 1D4 anti-idiotypic Fab (Fab, V domains shown)
VH: QVQLVESGGGLVQPGGSLRLSCAASGFTFSSSGLHWVRQAPGKGLEWVSGIDSSSSTTYYADSVKGRFTISRDNSKNTLYLQMNSLRAEDTAVYYCARYYFDVWGQGTLVTVSS
VL: DIELTQPPSVSVAPGQTARISCSGDSIGTYAYWYQQKPGQAPVLVIYADDNRPSGIPERFSGSNSGNTATLTISGTQAEDEADYYCSSWATDNAPVFGGGTKLTVL
For the molecule B1, the dissociation constant (Kd) turned out to be 3.75 nM, the koff was found to be 0.013 s⁻¹ and the kon is 3.5e+06 M⁻¹ s⁻¹.

B2: 1A6 anti-idiotypic Fab (Fab, V domains shown)
VH: QVQLVESGGGLVQPGGSLRLSCAASGFTFSSYAMNWVRQAPGKGLEWVSLISGSGSSTYYADSVKGRFTISRDNSKNTLYLQMNSLRAEDTAVYYCARFHTHGGYFDIWGQGTLVTVSS
VL: DIALTQPASVSGSPGQSITISCTGTSSDIGAYTYGSWYQQHPGKAPKLMIYGVNNRPSGVSNRFSGSKSGNTASLTISGLQAEDEADYYCASFDFSVSGVVFGGGTKLTVL
B2 gave a Kd of 0.94 nM, a koff of 0.00628 s⁻¹ and a kon of 6.67e+06 M⁻¹ s⁻¹.

As usually defined, the Kd is the constant that tells how readily two partners part at equilibrium. Read a high Kd as a looser complex. One may read the koff as a measure of how fast the partners let go of each other. Read a high koff as a short-lived complex. The kon is the second-order rate constant of association. Low readings indicate slower complex formation, high ones faster complex formation.
